Target: IL-23-p40 (human) (UniProt P29460)
Experiment: Binding ELISA: IL-23-p40 coated at 2 ug/ml, antibody dilution series 0 to 5 ug/ml, goat anti-human IgG secondary antibody, OD450 (reference 650 nm). The sheet prints no unit on the x axis; ng/ml follows from the range in paragraph 77 (highest point at 5000)

IL-23-p40 (human), sequence (P29460 23-328 limits assumed): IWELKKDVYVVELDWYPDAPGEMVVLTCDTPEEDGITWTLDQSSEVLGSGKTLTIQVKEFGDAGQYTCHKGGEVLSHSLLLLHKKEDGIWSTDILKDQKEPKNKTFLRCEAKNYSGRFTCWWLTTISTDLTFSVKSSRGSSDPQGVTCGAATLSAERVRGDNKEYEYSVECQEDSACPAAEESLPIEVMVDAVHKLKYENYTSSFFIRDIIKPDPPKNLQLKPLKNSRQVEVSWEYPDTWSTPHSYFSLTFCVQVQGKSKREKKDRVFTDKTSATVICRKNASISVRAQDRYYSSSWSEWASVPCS

- EC50: 0.0179 µg/mL
Substance: IL-23 p40 specific antibody QX001S

Source: patent publication US12692303
